For experiment [1], the target named is T1, phage containing the peptide of SEQ ID NO: 32.
T1 construct: The phage coat fusion is not described
T1 peptide: HHPHFKPVSNSR
Nature of the experiment: phage peptide library panned on the coated Fab, clones selected by EIA. Here is the method: (§1) A 96-well plate (costar No. 3690) was coated with anti-HGF H61 Fab or anti-HGF H68 Fab dissolved in 25 μl of TBS solution at a concentration of 10 μg/ml per well. PHD peptide library (phage display of combinatorial peptide library) (new England Biolob.) was added to the well plate, and then, the well plate was kept for 2 hrs at room temperature. The well plate was washed with 0.5% (v/v) Tween 20 in PBS and eluted with 0.1 M HCl-glycine (pH 2.2). The washing steps were increased from 5 times in the first round to 10 times in the second round and 15 times in the subsequent rounds. Typically seven rounds of panning were carried out. After the last round of panning, the phage clones containing anti-HGF H61 Fab or anti-HGF H68 Fab were selected by EIA using anti-HGF H61 Fab or anti-HGF H68 Fab-coated ELISA plate and horseradish peroxidase-conjugated anti-M13 phage goat monoclonal antibody (Roche). The selected clones were subjected to nucleotide sequencing and the amino acid sequences were determined from the analyzed nucleotide sequences.
(§2) Nucleotide sequencing was performed according to the dye-labeled primer sequencing method (Chung et al., supra) using a sequencing primer of SEQ ID NO: 31. As a result, peptides encoding anti-HGF H61 and H68 Fabs deduced from the analyzed nucleotide sequences had the amino acid sequences of SEQ ID NOs: 32 and 33, respectively.

A further experiment has as its target T2, c-Met (UniProt P08581 25-932, limits assumed).
T2 construct: also called HGF receptor
Put plainly: SPR, c-Met on CM5 chip, Fab injected alone. Here is the method: To ascertain the fact that anti-HGF H68 Fab can inhibit the binding of HGF to c-Met in real time, c-Met was coupled to CM5 sensor chip through an amine coupling method. Thereafter, HGF alone was injected at a concentration of 50 nM, and premixed with anti-HGF H68 Fab of 5 different concentrations (50 nM, 250 nM, 500 nM, 1 μM and 1.5 μM) and soluble c-Met of 5 different concentrations (50 nM, 100 nM, 200 nM, 400 nM, 600 nM), respectively. Binding interaction was allowed to proceed in PBS buffer containing 0.005% surfactant P20 at a flow rate of 30 μl/min at 25° C. The surface was regenerated with 1 M NaCl/50 mM NaOH.
There was no binding of HGF in case when anti-HGF H68 Fab alone was injected.
On the technique in general: In SPR one partner is held on a chip, and binding of the other changes the refractive index at the surface.

Experiment [2] has as its target T3, phage containing the peptide of SEQ ID NO: 33.
T3 construct: The phage coat fusion is not described
T3 peptide: KSLSRHDHIHHH
Nature of the experiment: phage peptide library panned on the coated Fab, clones selected by EIA. Here is the method:
as §1, §2

This note sets out measurements from US20070036789A1 (NATIONAL CANCER CENTER, published 2007).

Changes are numbered by the printed parent chain.

T2 sequence (P08581 25-932 limits assumed): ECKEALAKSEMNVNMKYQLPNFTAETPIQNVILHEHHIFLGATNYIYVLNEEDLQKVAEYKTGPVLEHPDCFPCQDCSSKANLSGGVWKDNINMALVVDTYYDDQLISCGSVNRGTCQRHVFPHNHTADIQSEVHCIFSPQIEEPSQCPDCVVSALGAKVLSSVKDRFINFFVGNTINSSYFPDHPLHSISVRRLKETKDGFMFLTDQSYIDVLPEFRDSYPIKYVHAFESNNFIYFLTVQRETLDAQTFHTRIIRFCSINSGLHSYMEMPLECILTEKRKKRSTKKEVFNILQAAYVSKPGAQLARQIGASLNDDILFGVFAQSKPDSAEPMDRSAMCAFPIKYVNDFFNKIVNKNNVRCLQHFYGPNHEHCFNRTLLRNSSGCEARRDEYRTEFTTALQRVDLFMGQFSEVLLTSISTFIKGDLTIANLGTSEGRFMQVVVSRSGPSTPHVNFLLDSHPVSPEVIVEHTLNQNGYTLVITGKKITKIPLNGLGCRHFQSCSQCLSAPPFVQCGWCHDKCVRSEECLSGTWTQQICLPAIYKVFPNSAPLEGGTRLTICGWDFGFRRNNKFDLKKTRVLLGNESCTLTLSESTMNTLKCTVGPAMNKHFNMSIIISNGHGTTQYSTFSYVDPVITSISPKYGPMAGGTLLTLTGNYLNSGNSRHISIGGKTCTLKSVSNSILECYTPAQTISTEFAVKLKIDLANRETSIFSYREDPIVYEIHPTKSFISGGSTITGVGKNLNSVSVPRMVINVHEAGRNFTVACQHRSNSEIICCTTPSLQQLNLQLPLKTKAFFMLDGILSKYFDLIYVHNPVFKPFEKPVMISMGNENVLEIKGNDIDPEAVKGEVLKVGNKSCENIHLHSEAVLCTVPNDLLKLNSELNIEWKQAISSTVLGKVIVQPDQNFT

B1: anti-HGF H61 Fab (Fab, V domains shown)
VH: QEQLMESGGRLVNPGESLTLTCKASGFTFSSYYMSWVRQAPGKGLEWIGYIGTSSGTTYYANSVKGRFTISSDNAQNTVFLRMTSLTDSDTATYFCARGLGRINLWGPGTLVTVSS
VL: ELVLTQTPSSMSAAVGGTVTINCQASQSVSNYLAWYQQKPGQPPKLLIYRASTLASGVPSRFSGSGSGTEFTLTISGMKAEDAATYYCQSGYYSAGATFGGGTNVEIKR
notes: Rabbit/human chimeric Fab: rabbit VH and VL joined to human CH1 and Ckappa from pComb3X; purified through its HA tag; also called clone 61; clone 61 Fab
For the molecule B1, the binding result in experiment [1] was “binds”.

B2: anti-HGF H68 Fab (Fab, V domains shown)
VH: B1 VH with E2Q, M5V, S31T, R82Q
VL: B1 VL with V3D, M11V, Y32L, R50G, T53N, A55E, S63R, G101A
notes: Rabbit/human chimeric Fab: rabbit VH and VL joined to human CH1 and Ckappa from pComb3X; purified through its HA tag; also called clone 68; clone 68 antibody
For B2, the binding result in the experiment with c-Met is on record as “no binding”; in experiment [2], “binds”; in experiment [1], “binds”.
